In the experiment the target is inter-alpha-inhibitor (IαI) (human) (UniProt P19827).

This note sets out measurements from publication PMC4661386.

Sequence of inter-alpha-inhibitor (IαI) (human) (P19827 whole entry, looked up): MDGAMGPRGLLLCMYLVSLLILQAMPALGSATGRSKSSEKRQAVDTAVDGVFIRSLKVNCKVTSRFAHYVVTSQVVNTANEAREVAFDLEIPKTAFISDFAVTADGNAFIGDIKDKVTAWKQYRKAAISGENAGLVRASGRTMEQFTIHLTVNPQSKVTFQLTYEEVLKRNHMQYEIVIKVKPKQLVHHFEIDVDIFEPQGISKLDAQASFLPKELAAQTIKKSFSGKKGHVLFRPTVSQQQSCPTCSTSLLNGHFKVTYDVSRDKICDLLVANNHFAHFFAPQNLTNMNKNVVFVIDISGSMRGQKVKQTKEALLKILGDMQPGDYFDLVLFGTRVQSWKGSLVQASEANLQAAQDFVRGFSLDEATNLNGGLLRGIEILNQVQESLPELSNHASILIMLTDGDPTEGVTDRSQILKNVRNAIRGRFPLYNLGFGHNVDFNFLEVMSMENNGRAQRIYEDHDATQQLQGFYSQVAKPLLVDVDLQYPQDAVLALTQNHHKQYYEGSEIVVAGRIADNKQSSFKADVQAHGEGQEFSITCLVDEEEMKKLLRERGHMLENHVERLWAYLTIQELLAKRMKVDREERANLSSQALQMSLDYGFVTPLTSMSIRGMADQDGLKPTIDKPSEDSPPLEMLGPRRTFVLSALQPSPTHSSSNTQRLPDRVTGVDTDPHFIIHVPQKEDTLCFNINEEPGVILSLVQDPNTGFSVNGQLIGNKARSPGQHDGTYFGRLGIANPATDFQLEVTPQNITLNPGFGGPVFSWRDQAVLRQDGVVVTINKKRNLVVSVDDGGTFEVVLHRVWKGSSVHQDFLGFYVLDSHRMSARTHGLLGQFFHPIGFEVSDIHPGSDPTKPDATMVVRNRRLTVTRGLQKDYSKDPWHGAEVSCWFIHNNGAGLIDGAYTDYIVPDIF

As to “Full-length human TSG-6 (rhTSG-6) E183S mutant (from UniProt P98066 18-277) (natural protein)”, the amount of HC·TSG-6 product with added calcium ions (SDS-PAGE band intensity) is 5 % of WT.
